Data published in patent US6949349.
Values belong to the binder of their own block, whether it stands above or below them. Positions of bridges follow the written chain, without caps; N, C: chain ends. Non-standard residues stand in square brackets, D forms with d. No end group written: not given here. Aib = CC(C)(N)C(=O)O

How the values were obtained:
IGFBP-3 [1] = molecular target: T1, IGFBP-3 (human, UniProt P17936 28-291); experiment: BIAcore competition: peptide inhibits IGFBP-3 binding to IGF-I; ratio to bp3-01-ox
T1 construct: also called rhIGFBP-3

IGFBP-1 [2] = molecular target: T2, IGFBP-1 (human, UniProt P08833 26-259); experiment: ELISA plate assay: peptide inhibits IGFBP-1 binding to IGF-I; ratio to bp1-01 (wt)
T2 construct: Biotinylated in the ELISA assays; also called rhIGFBP-1
T2 sequence (looked up): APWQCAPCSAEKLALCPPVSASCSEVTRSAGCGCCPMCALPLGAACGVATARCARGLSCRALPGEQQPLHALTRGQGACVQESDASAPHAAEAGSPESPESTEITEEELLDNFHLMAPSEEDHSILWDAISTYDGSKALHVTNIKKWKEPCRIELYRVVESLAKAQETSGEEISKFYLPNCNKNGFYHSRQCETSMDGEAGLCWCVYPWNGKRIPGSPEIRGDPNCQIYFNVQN

IGFBP-1 [3] = molecular target: T2, IGFBP-1; experiment: biotinylated-IGFBP-1 ELISA: peptide inhibits IGFBP-1 binding to IGF-I; ratio to bp1-01 (wt)
IGFBP-3 [4] = molecular target: T1, IGFBP-3; experiment: BIAcore competition: peptide inhibits IGFBP-3 binding to immobilized IGF-I
IGFBP-1 [5] = molecular target: T2, IGFBP-1; experiment: BIAcore competition: peptide inhibits IGFBP-1 binding to IGF-II; ratio to bp1-01 (wt)
IGFBP-1 [6] = molecular target: T2, IGFBP-1; experiment: BIAcore competition: peptide inhibits IGFBP-1 binding to IGF-I; ratio to bp1-01 (wt)

T1 sequence (P17936 28-291 limits assumed): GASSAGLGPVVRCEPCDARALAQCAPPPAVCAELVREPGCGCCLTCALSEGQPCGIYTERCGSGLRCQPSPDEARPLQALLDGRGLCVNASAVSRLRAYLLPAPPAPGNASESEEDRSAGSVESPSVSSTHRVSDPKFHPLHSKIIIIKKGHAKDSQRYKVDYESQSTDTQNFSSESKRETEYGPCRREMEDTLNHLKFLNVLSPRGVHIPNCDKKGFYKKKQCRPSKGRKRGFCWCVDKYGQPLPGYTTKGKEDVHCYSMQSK

B2: bp1027 (peptide)
peptide: CKAGPLLWLCERFF
notes: g8 bp1-01 selectant
IC50 (mut)/IC50 (wt) (IGFBP-1 [2]): 8.8 ratio

B4: bp1-01 R2a (peptide)
peptide: C[dA]AGPLQWLCEKYFG
modifications: disulfide 1-10
notes: Non-natural variant of bp1-01 (a = D-alanine)
IC50 (mut)/IC50 (wt) (IGFBP-1 [3]): 50 ratio

B12: bp1-01 G4a (peptide)
peptide: CRA[dA]PLQWLCEKYFG
modifications: disulfide 1-10
notes: as for B4
IC50 (mut)/IC50 (wt) (IGFBP-1 [3]): 0.6 ratio

B13: bp1-01 Q7 aib (peptide)
peptide: CRAGPL[Aib]WLCEKYFG
modifications: disulfide 1-10
notes: Non-natural variant of bp1-01; X stands for aib
IC50 (mut)/IC50 (wt) (IGFBP-1 [3]): 1.6 ratio

B14: bp1-01 L6a (peptide)
peptide: CRAGP[dA]QWLCEKYFG
modifications: disulfide 1-10
notes: as for B4
IC50 (mut)/IC50 (wt) (IGFBP-1 [3]): 400 ratio

B15: bp1-01 L9aib (peptide)
peptide: CRAGPLQW[Aib]CEKYFG
modifications: disulfide 1-10
notes: as for B13
IC50 (mut)/IC50 (wt) (IGFBP-1 [3]): 400 ratio

B21: bp1-01 F14aib (peptide)
peptide: CRAGPLQWLCEKY[Aib]G
modifications: disulfide 1-10
notes: as for B13
IC50 (mut)/IC50 (wt) (IGFBP-1 [3]): 3 ratio

B22: bp1-01 A3a (peptide)
chain: CR[dA]GPLQWLCEKYFG
modifications: disulfide 1-10 (inferred)
IC50 (mut)/IC50 (wt) (IGFBP-1 [3]): 34 ratio

B25: bp1-01 E11aib (peptide)
peptide: CRAGPLQWLC[Aib]KYFG
modifications: disulfide 1-10
notes: as for B13
IC50 (mut)/IC50 (wt) (IGFBP-1 [3]): 1 ratio

B27: bp1-01 K12aib (peptide)
peptide: CRAGPLQWLCE[Aib]YFG
modifications: disulfide 1-10
notes: as for B13
IC50 (mut)/IC50 (wt) (IGFBP-1 [3]): 2 ratio

B29: bp1-01 E11A (peptide)
peptide: CRAGPLQWLCAKYFG
notes: Ala-scan variant of bp1-01
IC50 (mut)/IC50 (wt) (IGFBP-1 [5]): 2.4 ratio | IC50 (mut)/IC50 (wt) (IGFBP-1 [6]): 2.9 ratio

B30: bp1-01 R2A (peptide)
peptide: CAAGPLQWLCEKYFG
modifications: disulfide 1-10 (inferred)
notes: Ala-scan variant of bp1-01; termini and disulfide not restated
IC50 (mut)/IC50 (wt) (IGFBP-1 [5]): 0.9 ratio | IC50 (mut)/IC50 (wt) (IGFBP-1 [6]): 0.9 ratio

B32: bp1-01 Q7A (peptide)
peptide: CRAGPLAWLCEKYFG
notes: Ala-scan variant of bp1-01
IC50 (mut)/IC50 (wt) (IGFBP-1 [5]): 0.6 ratio | IC50 (mut)/IC50 (wt) (IGFBP-1 [6]): 0.7 ratio

B33: bp1-01 L9A (peptide)
peptide: CRAGPLQWACEKYFG
notes: Ala-scan variant of bp1-01
IC50 (mut)/IC50 (wt) (IGFBP-1 [5]): 29.7 ratio | IC50 (mut)/IC50 (wt) (IGFBP-1 [6]): 33.2 ratio

B34: bp1-01 F14A (peptide)
peptide: CRAGPLQWLCEKYAG
notes: Ala-scan variant of bp1-01
IC50 (mut)/IC50 (wt) (IGFBP-1 [5]): 5.8 ratio | IC50 (mut)/IC50 (wt) (IGFBP-1 [6]): 6.2 ratio

B36: bp1-01 K12A (peptide)
peptide: CRAGPLQWLCEAYFG
notes: Ala-scan variant of bp1-01
IC50 (mut)/IC50 (wt) (IGFBP-1 [5]): 5.3 ratio | IC50 (mut)/IC50 (wt) (IGFBP-1 [6]): 7.9 ratio

B37: bp1-01 L6A (peptide)
peptide: CRAGPAQWLCEKYFG
notes: Ala-scan variant of bp1-01
IC50 (mut)/IC50 (wt) (IGFBP-1 [5]): 34.7 ratio | IC50 (mut)/IC50 (wt) (IGFBP-1 [6]): 30.3 ratio

B38: 4d3.3 (peptide)
peptide: ASEEVCWPVAEWYLCNMWGR
IC50 (IGFBP-3 [4]): 5.6 µM | IC50 (mut)/IC50 (wt) (IGFBP-3 [1]): 2.8 ratio

Results, then the binder that gave them:

IC50 (mut)/IC50 (wt) (IGFBP-3 [1]): > 500 ratio
B1: bp3-24 (SEQ ID NO:107) (peptide)
peptide: WPVAEWYLCN

IC50 (mut)/IC50 (wt) (IGFBP-1 [2]): 4.3 ratio
B3: bp1030 (peptide)
peptide: CKEGPLLWLCERFF
notes: g8 bp1-01 selectant

IC50 (IGFBP-3 [4]): 5.4 µM | IC50 (mut)/IC50 (wt) (IGFBP-3 [1]): 2.7 ratio
B5: bp3-28 (peptide)
peptide: EEVCWPVAEWYLCN
notes: bp3-01-ox variant

IC50 (mut)/IC50 (wt) (IGFBP-1 [2]): 0.68 ratio
B6: bp1-15 (peptide)
peptide: CAAGPLQWLCEKYF
notes: g8 bp1-01 selectant

IC50 (mut)/IC50 (wt) (IGFBP-1 [2]): 0.39 ratio
B7: bp68 (peptide)
peptide: CRAGPLQWLCEKFF
notes: g8 bp1-01 selectant

IC50 (mut)/IC50 (wt) (IGFBP-1 [2]): 0.34 ratio
B8: bp67 (peptide)
peptide: CRAGPLQWLCERYF
notes: g8 bp1-01 selectant

IC50 (mut)/IC50 (wt) (IGFBP-1 [2]): 4.6 ratio
B9: bp1028 (peptide)
peptide: CRAGPLQWLCERFF
notes: g8 bp1-01 selectant

IC50 (mut)/IC50 (wt) (IGFBP-1 [2]): 1.7 ratio
B10: bp1029 (peptide)
peptide: CREGPLQWLCERFF
notes: g8 bp1-01 selectant

IC50 (mut)/IC50 (wt) (IGFBP-1 [2]): 0.37 ratio
B11: bp1-02 (peptide)
peptide: SEVGCRAGPLQWLCEKYFG-NH2
modifications: disulfide 5-14; N-terminus assumed
SMILES: CC(C)C[C@@H]1NC(=O)[C@H](Cc2c[nH]c3ccccc23)NC(=O)[C@H](CCC(N)=O)NC(=O)[C@H](CC(C)C)NC(=O)[C@@H]2CCCN2C(=O)CNC(=O)[C@H](C)NC(=O)[C@H](CCCNC(=N)N)NC(=O)[C@@H](NC(=O)CNC(=O)[C@@H](NC(=O)[C@H](CCC(=O)O)NC(=O)[C@@H](N)CO)C(C)C)CSSC[C@@H](C(=O)N[C@@H](CCC(=O)O)C(=O)N[C@@H](CCCCN)C(=O)N[C@@H](Cc2ccc(O)cc2)C(=O)N[C@@H](Cc2ccccc2)C(=O)NCC(N)=O)NC1=O
notes: 19-mer variant of bp1-01

IC50 (IGFBP-3 [4]): 5.6 µM | IC50 (mut)/IC50 (wt) (IGFBP-3 [1]): 2.8 ratio
B16: bp3-30 (peptide)
peptide: ASEEVCWPVAEWYLCN
notes: bp3-01-ox variant

IC50 (mut)/IC50 (wt) (IGFBP-1 [3]): 7.1 ratio
B17: bp1-01 Y13aib (peptide)
peptide: CRAGPLQWLCEK[Aib]FG
modifications: disulfide 1-10
notes: as for B13

IC50 (mut)/IC50 (wt) (IGFBP-3 [1]): 0.33 ratio
B18: bp3-39 (peptide)
peptide: SEEVCWPVAEWYLCN-NH2
modifications: disulfide 5-14 (inferred)

IC50 (IGFBP-3 [4]): 4 µM | IC50 (mut)/IC50 (wt) (IGFBP-3 [1]): 2 ratio
B19: bp3-41 (peptide)
peptide: GPETCWPVAEWYLCN
notes: bp3-01-ox variant

IC50 (mut)/IC50 (wt) (IGFBP-1 [3]): 24 ratio
B20: bp1-01 W8aib (peptide)
peptide: CRAGPLQ[Aib]LCEKYFG
modifications: disulfide 1-10
notes: as for B13

IC50 (IGFBP-3 [4]): 46 µM | IC50 (mut)/IC50 (wt) (IGFBP-3 [1]): 23 ratio
B23: bp3-25 (SEQ ID NO:106) (peptide)
peptide: CWPVAEWYLCN

IC50 (IGFBP-3 [4]): 0.72 µM | IC50 (mut)/IC50 (wt) (IGFBP-3 [1]): 0.36 ratio
B24: bp3-15 (peptide)
peptide: SEEVCWPVAEWYLCN
notes: also called BP15

IC50 (IGFBP-3 [4]): 2.8 µM | IC50 (mut)/IC50 (wt) (IGFBP-3 [1]): 1.4 ratio
B26: bp3-27 (peptide)
peptide: EVCWPVAEWYLCN
notes: bp3-01-ox variant

IC50 (mut)/IC50 (wt) (IGFBP-3 [1]): 0.33 ratio
B28: bp3-40 (peptide)
peptide: Ac-SEEVCWPVAEWYLCN-NH2
modifications: disulfide 5-14 (inferred)

IC50 (mut)/IC50 (wt) (IGFBP-1 [5]): 14.6 ratio | IC50 (mut)/IC50 (wt) (IGFBP-1 [6]): 12.5 ratio
B31: bp1-01 Y13A (peptide)
peptide: CRAGPLQWLCEKAFG
notes: Ala-scan variant of bp1-01

IC50 (mut)/IC50 (wt) (IGFBP-1 [5]): 6.4 ratio | IC50 (mut)/IC50 (wt) (IGFBP-1 [6]): 7.4 ratio
B35: bp1-01 W8A (peptide)
peptide: CRAGPLQALCEKYFG
notes: Ala-scan variant of bp1-01
